Target: Biotinylated histone H3 peptide (aa 21-44) tri-methylated on K27 (UniProt P68431)
Assay: pull-down

- fold change of the amount bound against Pc2 (1-100): > 4 fold
Substance: GST-SUMO1-fused Pc2(1-100) (from UniProt O00257 1-100)

Reference: PMC2879644
